From patent publication US20180194851A1 (Pfizer, published 2018)

Tests used:
[1] = molecular target: T1, human 4-1BB (recombinant antigen, construct not stated) (human, UniProt Q07011 24-186); test: SPR (Biacore 3000), Fab analyte on amine-coupled human 4-1BB
T1 construct: It may be the 4-1BB/Fc chimera; also called CD137/HUMAN 4-1BB; unlabeled human 4-1BB

[2] = molecular target: T1, human 4-1BB (recombinant antigen, …); test: solution equilibrium titration (SET), MSD electrochemiluminescence
[3] = molecular target: T2, Recombinant human 4-1BB/Fc Chimera (R&D Systems #838-4B) (human, UniProt Q07011 24-186); test: ELISA on directly coated human 4-1BB/Fc
T2 construct: Bought protein; also called Human 4-1BB IgG1Fc chimera; not shown: Factor Xa-cleavable junction, human IgG1 Fc and 6xHistidine tag of the bought chimera

[4] = molecular target: T3, human 4-1BB on cells (human, UniProt Q07011 18-255); test: FACS on HEK293 cells expressing human 4-1BB
T3 construct: Expressed on stably transfected HEK293/HEK293T cells, transduced 300-19 cells or PHA stimulated human PBMC; also called h41BB; hu4-1BB

[5] = molecular target: T4, Hu41BB N&E.5 (human, UniProt Q07011 18-255); test: FACS dose response on 300-19 cell pools
T4 construct: Human-to-dog mutant of the human 4-1BB extracellular domain, expressed on transduced 300-19 cells; also called 4-1BB Mutant N&E.5
T4 chain: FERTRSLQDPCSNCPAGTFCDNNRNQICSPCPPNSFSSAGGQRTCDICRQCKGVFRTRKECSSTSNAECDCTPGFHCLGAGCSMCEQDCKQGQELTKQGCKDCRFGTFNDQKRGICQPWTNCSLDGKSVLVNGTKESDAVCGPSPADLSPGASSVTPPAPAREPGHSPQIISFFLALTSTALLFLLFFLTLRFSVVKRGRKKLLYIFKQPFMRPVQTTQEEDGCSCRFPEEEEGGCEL

[6] = molecular target: T5, Hu41BB N&E (human, UniProt Q07011 18-255); test: FACS, 100 nM antibody, transduced 300-19 cell pools
T5 construct: Human-to-dog mutant of the human 4-1BB extracellular domain, expressed on transduced 300-19 cells
T5 chain: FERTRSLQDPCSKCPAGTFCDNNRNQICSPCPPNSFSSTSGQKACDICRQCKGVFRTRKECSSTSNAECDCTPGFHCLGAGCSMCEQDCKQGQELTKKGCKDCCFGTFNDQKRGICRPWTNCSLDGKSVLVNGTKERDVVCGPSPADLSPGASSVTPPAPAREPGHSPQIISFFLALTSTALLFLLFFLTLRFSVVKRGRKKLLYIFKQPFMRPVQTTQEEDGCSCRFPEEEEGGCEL

[7] = molecular target: T6, Hu41BB N&E.1 (human, UniProt Q07011 18-255); test: as above
T6 construct: Human-to-dog mutant of the human 4-1BB extracellular domain, expressed on transduced 300-19 cells
T6 chain: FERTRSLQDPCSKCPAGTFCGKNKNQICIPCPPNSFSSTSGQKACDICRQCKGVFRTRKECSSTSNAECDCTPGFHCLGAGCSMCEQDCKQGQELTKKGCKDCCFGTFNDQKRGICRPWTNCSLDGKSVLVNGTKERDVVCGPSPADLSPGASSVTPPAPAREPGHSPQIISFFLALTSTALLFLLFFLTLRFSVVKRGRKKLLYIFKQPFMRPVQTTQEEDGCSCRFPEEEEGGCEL

[8] = molecular target: T7, Hu41BB N&E.4 (human, UniProt Q07011 18-255); test: as above
T7 construct: Human-to-dog mutant of the human 4-1BB extracellular domain, expressed on transduced 300-19 cells
T7 chain: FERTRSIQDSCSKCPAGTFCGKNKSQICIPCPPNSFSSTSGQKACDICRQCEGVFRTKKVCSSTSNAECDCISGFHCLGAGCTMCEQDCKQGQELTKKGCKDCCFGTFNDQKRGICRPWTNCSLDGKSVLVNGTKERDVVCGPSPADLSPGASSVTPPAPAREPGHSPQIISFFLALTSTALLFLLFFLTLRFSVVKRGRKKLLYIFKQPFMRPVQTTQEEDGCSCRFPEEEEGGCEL

[9] = molecular target: T8, Hu41BB N&E.3 (human, UniProt Q07011 18-255); test: as above
T8 construct: Human-to-dog mutant of the human 4-1BB extracellular domain, expressed on transduced 300-19 cells
T8 chain: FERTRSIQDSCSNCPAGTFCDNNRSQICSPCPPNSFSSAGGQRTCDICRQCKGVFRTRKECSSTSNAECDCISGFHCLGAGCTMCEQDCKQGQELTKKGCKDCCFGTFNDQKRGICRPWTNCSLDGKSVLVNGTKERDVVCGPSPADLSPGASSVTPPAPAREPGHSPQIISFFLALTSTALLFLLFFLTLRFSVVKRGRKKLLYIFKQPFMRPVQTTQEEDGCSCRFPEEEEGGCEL

[10] = molecular target: T9, Hu41BB N&E.2 (human, UniProt Q07011 18-255); test: as above
T9 construct: Human-to-dog mutant of the human 4-1BB extracellular domain, expressed on transduced 300-19 cells
T9 chain: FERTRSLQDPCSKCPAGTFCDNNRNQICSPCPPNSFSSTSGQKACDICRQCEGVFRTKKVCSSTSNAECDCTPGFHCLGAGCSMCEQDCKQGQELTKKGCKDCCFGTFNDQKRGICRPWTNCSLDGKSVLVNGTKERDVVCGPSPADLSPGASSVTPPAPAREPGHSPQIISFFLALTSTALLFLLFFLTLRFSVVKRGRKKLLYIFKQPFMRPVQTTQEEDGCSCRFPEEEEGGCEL

[11] = molecular target: T10, Hu41BB N&E.6 (human, UniProt Q07011 18-255); test: as above
T10 construct: Human-to-dog mutant of the human 4-1BB extracellular domain, expressed on transduced 300-19 cells
T10 chain: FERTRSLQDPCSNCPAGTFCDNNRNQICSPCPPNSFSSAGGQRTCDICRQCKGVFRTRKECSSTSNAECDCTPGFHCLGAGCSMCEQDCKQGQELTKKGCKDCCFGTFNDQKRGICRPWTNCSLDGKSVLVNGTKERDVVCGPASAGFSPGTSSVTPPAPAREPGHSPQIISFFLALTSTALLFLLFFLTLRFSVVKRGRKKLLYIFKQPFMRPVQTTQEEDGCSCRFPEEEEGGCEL

[12] = molecular target: T11, OX-40 on 300.19 cells (UniProt P43489 29-277, limits assumed); test: FACS on 300.19 cells expressing OX-40
T11 construct: whole, on cells; also called CD134; TNFRSF4
T11 sequence (looked up): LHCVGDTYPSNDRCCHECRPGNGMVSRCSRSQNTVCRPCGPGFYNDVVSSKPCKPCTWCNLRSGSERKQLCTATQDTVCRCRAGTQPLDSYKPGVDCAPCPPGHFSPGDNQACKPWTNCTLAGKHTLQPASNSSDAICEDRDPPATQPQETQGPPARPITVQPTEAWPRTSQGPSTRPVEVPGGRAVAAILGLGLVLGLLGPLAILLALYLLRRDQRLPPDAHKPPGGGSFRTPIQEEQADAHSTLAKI

[13] = molecular target: T12, CD40 on 300.19 cells (UniProt P25942 21-277, limits assumed); test: FACS on 300.19 cells expressing CD40
T12 construct: whole, on cells; also called TNFRSF5; 300.19 CD40

[14] = molecular target: T3, human 4-1BB on cells; test: FACS on transfected cells
[15] = molecular target: T3, human 4-1BB on cells; test: FACS dose response, Alexa Fluor 647 labelled antibody on 300-19 cells expressing human 4-1BB
[16] = molecular target: T4, Hu41BB N&E.5; test: FACS dose response, Alexa Fluor 647 labelled antibody on 300-19 cells expressing mutant N&E.5
[17] = molecular target: T2, Recombinant human 4-1BB/Fc Chimera (R&D …); test: ELISA on coated human 4-1BB IgG1Fc chimera
[18] = molecular target: T13, human 4-1BB extracellular portion, amino acids 24-186 (Fc cleaved off with Factor Xa) (human, UniProt Q07011 24-186); test: SPR (Biacore 3000), antibody amine-coupled, 4-1BB 24-186 as analyte, 25 C
T13 construct: Made from the R&D Systems 4-1BB/Fc chimera by Factor Xa cleavage; also called recombinant human 4-1BB; the 4-1BB

[19] = molecular target: T3, human 4-1BB on cells; test: FACS on HEK293T cells expressing human 4-1BB, IgG1
[20] = molecular target: T2, Recombinant human 4-1BB/Fc Chimera (R&D …); test: ligand competition ELISA, 4-1BB_IgG1Fc to plate-bound 4-1BBL (competitor 4-1BBL)
[21] = molecular target: T2, Recombinant human 4-1BB/Fc Chimera (R&D …); test: ELISA on directly coated human 4-1BB/Fc, IgG1

T12 sequence (P25942 21-277 limits assumed): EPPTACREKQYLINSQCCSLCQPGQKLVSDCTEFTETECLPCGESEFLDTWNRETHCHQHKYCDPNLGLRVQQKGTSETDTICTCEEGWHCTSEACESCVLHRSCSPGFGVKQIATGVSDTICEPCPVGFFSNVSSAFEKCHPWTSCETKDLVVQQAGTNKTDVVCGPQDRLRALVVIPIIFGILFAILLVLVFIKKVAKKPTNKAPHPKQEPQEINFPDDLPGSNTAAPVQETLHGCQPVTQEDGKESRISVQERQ

B1: Fab-7480 (Fab, V domains shown)
VH: QVQLVQSGAEVKKPGESLKISCKGSGYSFSTYWISWVRQMPGKGLEWMGKIYPGDSYTNYSPSFQGQVTISADKSISTAYLQWSSLKASDTAMYYCARGYGIFDYWGQGTLVTVSS
VL: DIELTQPPSVSVAPGQTARISCSGDNIGDQYAHWYQQKPGQAPVVVIYQDKNRPSGIPERFSGSNSGNTATLTISGTQAEDEADYYCATYTGFGSLAVFGGGTKLTVL
**Q.** What does the source list for B1?
**A.** Kd [1]: 0.5 nM; Kd [2]: 0.046 nM; EC50 [3]: 0.7 nM; EC50 [4]: 0.9 nM

B2: MOR-7480 (IgG1) (antibody, V domains shown)
VH: QVQLVQSGAEVKKPGESLKISCKGSGYSFSTYWISWVRQMPGKGLEWMGKIYPGDSYTNYSPSFQGQVTISADKSISTAYLQWSSLKASDTAMYYCARGYGIFDYWGQGTLVTVSS
VL: DIELTQPPSVSVAPGQTARISCSGDNIGDQYAHWYQQKPGQAPVVVIYQDKNRPSGIPERFSGSNSGNTATLTISGTQAEDEADYYCATYTGFGSLAVFGGGTKLTVL
notes: Human IgG1 format, lambda light chain
**Q.** How did the “fold decrease in binding against human 4-1BB” value [5] turn out when B2 was run?
**A.** Its value is > 5 fold.

**Q.** Does B2 bind [6]?
**A.** Result: binds

**Q.** Does B2 bind [7]?
**A.** Result: binds

**Q.** Does B2 bind [8]?
**A.** Result: binds

**Q.** Does B2 bind [9]?
**A.** Result: binds

**Q.** Does B2 bind [10]?
**A.** Result: binds

**Q.** Does B2 bind [11]?
**A.** Result: binds

**Q.** Does B2 bind [12]?
**A.** Result: no binding (tested: 1000 nM)

**Q.** Does B2 bind [13]?
**A.** Result: no binding (tested: 1000 nM)

**Q.** And the “fold selectivity for 4-1BB versus OX-40 and CD40” value [14]?
**A.** The value was ≥ 100 fold.

**Q.** What about the EC50 [15] of the same binder?
**A.** Its EC50 is 1.68 nM.

**Q.** What about the EC50 [16] of the same binder?
**A.** Its EC50 is 12.3 nM.

**Q.** And the EC50 [17]?
**A.** Its EC50 is 0.076 nM.

**Q.** And the Kd [18]?
**A.** The Kd was 0.42 nM.

**Q.** What about the koff [18] of the same binder?
**A.** Its koff is 0.00015 s⁻¹.

**Q.** What about the kon [18] of the same binder?
**A.** Its kon is 360000 M⁻¹ s⁻¹.

**Q.** What about the t1/2 [18] of the same binder?
**A.** Its t1/2 is 1.37 h.

**Q.** What about the EC50 [19] of the same binder?
**A.** The EC50 was 0.6 nM.

**Q.** What about the “% max inhibition” value [20] of the same binder?
**A.** The value was 96%.

**Q.** And the IC50 [20]?
**A.** Its IC50 is 0.122 nM.

**Q.** And the EC50 [21]?
**A.** Its EC50 is 0.7 nM.
